From patent US9255257B2, “PmST1 mutants for chemoenzymatic synthesis of sialyl lewis X compounds” (THE REGENTS OF THE UNIVERSITY OF CALIFORNIA, priority 2011, dated 2016) come the findings set out here.

Data set [1] concerns CC(=O)N[C@H]1[C@H]([C@H](O)[C@H](O)CO)O[C@@](O[C@H]2[C@@H](O)[C@@H](CO)O[C@@H](O[C@H]3[C@H](O)[C@@H](O)[C@H](Oc4ccc5c(C)cc(=O)oc5c4)O[C@@H]3CO)[C@@H]2O)(C(=O)O)C[C@@H]1O. The experiment in a line: α2-3-sialidase activity, Neu5Acα2-3LacβMU as substrate. It counts as biochemical, Pasteurella multocida. Particulars: other: apparent, MES pH 5.5, 37° C. On the procedure:
Site-directed mutagenesis. Site-directed mutagenesis was carried out using the QuikChange multi-site-directed mutagenesis kit from Stratagene according to the manufacturer's protocol. The primers used were 5′-[…] -3′ (SEQ ID NO:32) for E271F and 5′-[…]-3′ (SEQ ID NO:33) for R313Y. The sites of mutations are underlined.
Protein Expression and Purification. The plasmids containing the mutant genes were transformed into E. coli BL21 (DE3). The E. coli cells were cultured in LB-rich media (10 g L^−1 tryptone, 5 g L^−1 yeast extract, and 10 g L^−1 NaCl) supplemented with ampicillin (100 μg mL^−1). Overexpression of the mutant proteins was achieved by adding 0.1 mM of isopropyl-1-thio-β-D-galactopyranoside (IPTG) to the E. coli culture when its OD600 nm reached 0.8. […]
All the sialidase and α2-3-sialyltransferase assays were performed in an HPLC system. […] After necessary dilutions were performed to adjust the concentrations of the fluorescent-labeled compounds, the samples were then kept on ice until aliquots of 8 μL were injected and analyzed by a Shimadzu LC-6AD system equipped with a membrane on-line degasser, a temperature control unit, and a fluorescence detector (Shimadzu RF-10AXL). […] The fluorescent compounds LacβMU and Neu5Acα2-3LacβMU were detected by excitation at 325 nm and emission at 372 nm.

In data set [2] the test system is CC(=O)N[C@H]1[C@H]([C@H](O)[C@H](O)CO)O[C@](OP(=O)(O)OC[C@H]2O[C@@H](n3ccc(N)nc3=O)[C@H](O)[C@@H]2O)(C(=O)O)C[C@@H]1O. Nature of the data set: α2-3-sialyltransferase activity, LacβMU as acceptor. Format: biochemical, Pasteurella multocida. To be noted: other: apparent, donor, LacβMU 1 mM, Tris-HCl pH 8.5, 37° C. As to the method:
(§1) To obtain the apparent kinetic parameters of LacβMU as the acceptor for the α2-3-sialyltransferase activity, the kinetic assays were performed in duplicate in reaction mixtures of 10 μL containing Tris-HCl buffer (100 mM, pH 8.5), a fixed concentration of CMP-Neu5Ac (1 mM), different concentrations of LacβMU (0.2, 0.5, 1.0, 2.0, 5.0, and 9.0 mM) and the mutant proteins (2 μg mL^−1 of E271F, 2 μg mL^−1 of R313Y, and 1.6 μg mL^−1 of E271F/R313Y). All reactions were allowed to proceed at 37° C. for 5 min (E271F), 7 min (R313Y), and 10 min (E271F/R313Y). The apparent kinetic parameters were obtained by fitting the experimental data (the average values of duplicate assay results) into the Michaelis-Menten equation using Grafit 5.0.
(§2) To obtain the apparent kinetic parameters of CMP-Neu5Ac as the donor for the α2-3-sialyltransferase activity, the kinetic assays were performed in duplicate in reaction mixtures of 10 μL containing Tris-HCl buffer (100 mM, pH 8.5), a fixed concentration of LacβMU (1 mM), different concentrations of CMP-Neu5Ac (0.1, 0.2, 0.5, 1.0, 2.0, 5.0, 10.0 and 20.0 mM) and the mutant proteins (2 μg mL^−1 of E271F, 2 μg mL^−1 of R313Y, and 1.6 μg mL^−1 of E271F/R313Y). All reactions were allowed to proceed at 37° C. for 2 min (E271F), 7 min (R313Y), and 5 min (E271F/R313Y). The apparent kinetic parameters were obtained by fitting the experimental data (the average values of duplicate assay results) into the Michaelis-Menten equation using Grafit 5.0.
(§3) All the sialidase and α2-3-sialyltransferase assays were performed in an HPLC system. Reactions were stopped by adding 10 μL of ethanol. After necessary dilutions were performed to adjust the concentrations of the fluorescent-labeled compounds, the samples were then kept on ice until aliquots of 8 μL were injected and analyzed by a Shimadzu LC-6AD system equipped with a membrane on-line degasser, a temperature control unit, and a fluorescence detector (Shimadzu RF-10AXL). A reverse-phase Premier C18 column (250×4.6 mm i.d., 5 μm particle size, Shimadzu) protected with a C18 guard column cartridge was used. The mobile phase was 25% acetonitrile. The fluorescent compounds LacβMU and Neu5Acα2-3LacβMU were detected by excitation at 325 nm and emission at 372 nm.

For data set [3], the system named is Cc1cc(=O)oc2cc(O[C@@H]3O[C@H](CO)[C@@H](O[C@@H]4O[C@H](CO)[C@H](O)[C@H](O)[C@H]4O)[C@H](O)[C@H]3O)ccc12. The description is as above. Format: biochemical, Pasteurella multocida. Particulars: other: apparent, acceptor, CMP-Neu5Ac 1 mM, Tris-HCl pH 8.5, 37° C. On the procedure: as §1, §2, §3
The subject of data set [4] is CC(=O)N[C@H]1[C@H]([C@H](O)[C@H](O)CO)O[C@](OP(=O)(O)OC[C@H]2O[C@@H](n3ccc(N)nc3=O)[C@H](O)[C@@H]2O)(C(=O)O)C[C@@H]1O. The experiment in a line: purified protein, by the assay type. Particulars: other: apparent, donor hydrolysis, H311A, Tris-HCl pH 8.5, 37° C., 20 min.
Method: (§4) The reactions were stopped by adding 10 μL of pre-chilled ethanol. The mixtures were incubated on ice for 30 min and centrifuged at 13,000 rpm for 5 min. The supernatants were diluted with borate buffer (25 mM, pH 9.5) and aliquotes of 5 μL each were injected to a Beckman Coulter P/ACE™ MDQ Capillary Electrophoresis system equipped with a capillary (60 cm×75 μm i.d.) and monitored at 254 nm. The apparent kinetic parameters were obtained by fitting the experimental data (the average values of duplicate assay results) into the Michaelis-Menten equation using Grafit 5.0.
The nature of data set [5]: Apparent kinetics of the α2-3-sialidase activity (HPLC, fluorescent sialoside substrate). It counts as biochemical. To be noted: substrate Neu5Acα2-3LacβMU. As to the method:
All the sialidase and α2-3-sialyltransferase assays were performed in an HPLC system. Reactions were stopped by adding 10 μL of ethanol. […] The mobile phase was 25% acetonitrile.
Kinetics of the α2-3-sialidase activity of PmST1 mutants.

Data set [6] in a line: Kinetics of the donor (CMP-Neu5Ac) hydrolysis activity by capillary electrophoresis. Format: biochemical.
Method: as §4

By Km is commonly meant the concentration of substrate that gives half-maximal velocity. Take “Pasteurella multocida PmST1 mutant R313Y of SEQ ID NO: 13 (R289Y of Δ24PmST1, SEQ ID NO: 9) (Pasteurella multocida; R313Y)”: the Km in data set [1] (R313Y, 25 min) is 51000 ± 5000 µM; in data set [2] (R313Y) it was 620 ± 40 µM; in data set [3] (R313Y), 670 ± 50 µM.
Take “Pasteurella multocida PmST1 double mutant E271F/R313Y of SEQ ID NO: 13 (E247F/R289Y of Δ24PmST1, SEQ ID NO: 11) (Pasteurella multocida; E271F/R313Y)”: the Km turned out to be 340 ± 20 µM in data set [2] (E271F/R313Y) and 540 ± 40 µM in data set [3] (E271F/R313Y).
With “Pasteurella multocida PmST1 mutant H311A (Pasteurella multocida; H311A)”, the Km in data set [4] turned out to be 1800 ± 200 µM.
Turning to “Pasteurella multocida PmST1 mutant E271F of SEQ ID NO: 13 (E247F of Δ24PmST1, SEQ ID NO: 7) (Pasteurella multocida; E271F)”, the Km is 5700 ± 900 µM in data set [1] (E271F, 1 min); 180 ± 10 µM in data set [2] (E271F); 710 ± 120 µM in data set [3] (E271F).

B1: D141A (protein)
chain: MKNRRLNFKLFFLIIFSLFSTLSWSKTITLYLDPASLPALNQLMDFTQNNEDKTHPRIFGLSRFKIPDNIITQYQNIHFVELKDNRPTEALFTILDQYPGNIELNIHLNIAHSVQLIRPILAYRFKHLDRVSIQQLNLYDAGSMEYVDLEKEENKDISAEIKQAEKQLSHYLLTGKIKFDNPTIARYVWQSAFPVKYHFLSTDYFEKAEFLQPLKEYLAENYQKMDWTAYQQLTPEQQAFYLTLVGFNDEVKQSLEVQQAKFIFTGTTTWEGNTDVREYYAQQQLNLLNHFTQAEGDLFIGDHYKIYFKGHPRGGEINDYILNNAKNITNIPANISFEVLMMTGLLPDKVGGVASSLYFSLPKEKISHIIFTSNKQVKSKEDALNNPYVKVMRRLGIIDESQVIFWDSLKQL
In the case of B1, the “decrease of α2-3-sialidase activity (catalytic efficiency kcat/Km) compared to wild-type PmST1” value (from here on “decrease of α2-3-sialidase activity”) in data set [5] is recorded as “about 7,300 fold”. For the same molecule, the “decrease of efficiency of CMP-Neu5Ac (donor) hydrolysis activity compared to WT” value in data set [6] is 1,000 fold.

B2: R313Y (protein, listed as Pasteurella multocida)
chain: MKNRRLNFKLFFLIIFSLFSTLSWSKTITLYLDPASLPALNQLMDFTQNNEDKTHPRIFGLSRFKIPDNIITQYQNIHFVELKDNRPTEALFTILDQYPGNIELNIHLNIAHSVQLIRPILAYRFKHLDRVSIQQLNLYDDGSMEYVDLEKEENKDISAEIKQAEKQLSHYLLTGKIKFDNPTIARYVWQSAFPVKYHFLSTDYFEKAEFLQPLKEYLAENYQKMDWTAYQQLTPEQQAFYLTLVGFNDEVKQSLEVQQAKFIFTGTTTWEGNTDVREYYAQQQLNLLNHFTQAEGDLFIGDHYKIYFKGHPYGGEINDYILNNAKNITNIPANISFEVLMMTGLLPDKVGGVASSLYFSLPKEKISHIIFTSNKQVKSKEDALNNPYVKVMRRLGIIDESQVIFWDSLKQL
modifications: PmST1 wild-type glycosyltransferase family 80 (GT80), GT80 sialyltransferase, Pm0188Ph
In the case of B2, in data set [5], the “decrease in sialidase kcat (turnover number) compared to wild-type PmST1” value is recorded as 1,278 fold, the “decrease of α2-3-sialidase activity” value is given as 2,639 fold and the “increase in sialidase Km value compared to wild-type PmST1” value was 2 fold.

B3: E271F (protein, listed as Pasteurella multocida)
chain: MKNRRLNFKLFFLIIFSLFSTLSWSKTITLYLDPASLPALNQLMDFTQNNEDKTHPRIFGLSRFKIPDNIITQYQNIHFVELKDNRPTEALFTILDQYPGNIELNIHLNIAHSVQLIRPILAYRFKHLDRVSIQQLNLYDDGSMEYVDLEKEENKDISAEIKQAEKQLSHYLLTGKIKFDNPTIARYVWQSAFPVKYHFLSTDYFEKAEFLQPLKEYLAENYQKMDWTAYQQLTPEQQAFYLTLVGFNDEVKQSLEVQQAKFIFTGTTTWFGNTDVREYYAQQQLNLLNHFTQAEGDLFIGDHYKIYFKGHPRGGEINDYILNNAKNITNIPANISFEVLMMTGLLPDKVGGVASSLYFSLPKEKISHIIFTSNKQVKSKEDALNNPYVKVMRRLGIIDESQVIFWDSLKQL
modifications: PmST1 wild-type glycosyltransferase family 80 (GT80), GT80 sialyltransferase, Pm0188Ph
As to B3, in data set [5], the “decrease in sialidase Km value compared to wild-type PmST1” value amounted to 4.2 fold, the “decrease in sialidase kcat (turnover number) compared to wild-type PmST1” value turned out to be 250 fold and the “decrease of α2-3-sialidase activity” value was “about 59 fold”.

B4: H311A (protein)
chain: MKNRRLNFKLFFLIIFSLFSTLSWSKTITLYLDPASLPALNQLMDFTQNNEDKTHPRIFGLSRFKIPDNIITQYQNIHFVELKDNRPTEALFTILDQYPGNIELNIHLNIAHSVQLIRPILAYRFKHLDRVSIQQLNLYDDGSMEYVDLEKEENKDISAEIKQAEKQLSHYLLTGKIKFDNPTIARYVWQSAFPVKYHFLSTDYFEKAEFLQPLKEYLAENYQKMDWTAYQQLTPEQQAFYLTLVGFNDEVKQSLEVQQAKFIFTGTTTWEGNTDVREYYAQQQLNLLNHFTQAEGDLFIGDHYKIYFKGAPRGGEINDYILNNAKNITNIPANISFEVLMMTGLLPDKVGGVASSLYFSLPKEKISHIIFTSNKQVKSKEDALNNPYVKVMRRLGIIDESQVIFWDSLKQL
On to B4, for which the “decrease of efficiency of CMP-Neu5Ac (donor) hydrolysis activity compared to WT” value in data set [6] is on record as 16 fold.
